What all share (experiment): EMSA
Settings in all cases: 8-oxo-7,8-dihydroguanosine at positions 3,7,11,15,19,23
(In EMSA bound probe runs differently from free probe, usually more slowly.)

Data set [1] deals with T1, PNPase GFT S76G;F78T (Escherichia coli K12) (UniProt P05055).
T1 sequence: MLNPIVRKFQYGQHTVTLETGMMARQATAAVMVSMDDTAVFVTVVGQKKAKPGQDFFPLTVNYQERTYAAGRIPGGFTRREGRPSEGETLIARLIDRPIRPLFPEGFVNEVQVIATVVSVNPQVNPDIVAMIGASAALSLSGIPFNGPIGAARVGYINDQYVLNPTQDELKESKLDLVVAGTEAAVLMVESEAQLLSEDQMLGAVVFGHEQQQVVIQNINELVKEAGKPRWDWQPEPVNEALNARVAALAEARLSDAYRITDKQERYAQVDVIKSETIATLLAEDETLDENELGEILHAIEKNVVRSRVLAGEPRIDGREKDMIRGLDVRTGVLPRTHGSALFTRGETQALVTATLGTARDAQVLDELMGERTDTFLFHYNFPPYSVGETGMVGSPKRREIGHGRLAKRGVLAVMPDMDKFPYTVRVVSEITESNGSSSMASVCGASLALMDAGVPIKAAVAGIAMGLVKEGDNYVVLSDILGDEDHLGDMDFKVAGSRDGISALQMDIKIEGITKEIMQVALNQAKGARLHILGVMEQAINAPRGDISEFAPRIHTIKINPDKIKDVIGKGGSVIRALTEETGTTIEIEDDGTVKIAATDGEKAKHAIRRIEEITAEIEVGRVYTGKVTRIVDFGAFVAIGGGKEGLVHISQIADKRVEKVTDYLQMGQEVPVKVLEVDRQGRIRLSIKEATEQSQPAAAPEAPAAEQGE

Data set [2] deals with T2, PNPase NFH S76N;F78H (Escherichia coli K12) (UniProt P05055).
T2 sequence: T1 sequence with G76N, T78H

Data set [3] concerns the target T3, PNPase NYM S76N;F77Y;F78M (Escherichia coli K12) (UniProt P05055).
T3 sequence: T1 sequence with G76N, F77Y, T78M

The target in data set [4] is T4, PNPase wild type (SFF) (Escherichia coli K12) (UniProt P05055).
T4 sequence: T1 sequence with G76S, T78F

Changes are numbered by the printed parent chain.

On to “NNGNNNGNNNGNNNGNNNGNNNGN [8-oxoG RNA 24-mer [NN(8-oxoG)N]6]”, for which the binding signal (Kd ratio unmodified/8-oxoG (selectivity)) in data set [1] was 2.3; in data set [2], 2.5; in data set [3], 2.8; in data set [4], 1.8.

The record behind these values is publication PMC6965710.
